Measurements reported in paper PMC9191617 (Glycobiology, 2022).

Target: the molecule itself
Assay: crystal structure

B1: CML1 (C. cinerea Mucin-binding Lectin 1), recombinant untagged (natural protein, Coprinopsis cinerea, UniProt B3VS76 1-127, looked up)
chain: MAIFHTGSELFIITRGPGKLTLLTWGGLNNLRSVIGAIPTENTGVTKWAVSFSHNYTRFSFIWEGQGEACYQIGNGLTRSPVGRSWSSSSTIHWGSSTVITEDVTSVVPGAVNRDKVTTAYALPDNL
stoichiometry N: 6
